The values below come from paper doi:10.1101/2023.02.16.528878 (bioRxiv, 2023).

As usually defined, the Kd is the equilibrium constant for the complex coming apart.

The labels stand for the following.
B1: recombinant UFC1 (enzyme)
chain: MADEATRRVVSEIPVLKTNAGPRDRELWVQRLKEEYQSLIRYVENNKNADNDWFRLESNKEGTRWFGKCWYIHDLLKYEFDIEFDIPITYPTTAPEIAVPELDGKTAKMYRGGKICLTDHFKPLWARNVPKFGLAHLMALGLGPWLAVEIPDLIQKGVIQHKEKCNQ

One experiment concerns the target T1, GST-CDK5RAP3 (human, UniProt Q96JB5 1-506).
T1 sequence: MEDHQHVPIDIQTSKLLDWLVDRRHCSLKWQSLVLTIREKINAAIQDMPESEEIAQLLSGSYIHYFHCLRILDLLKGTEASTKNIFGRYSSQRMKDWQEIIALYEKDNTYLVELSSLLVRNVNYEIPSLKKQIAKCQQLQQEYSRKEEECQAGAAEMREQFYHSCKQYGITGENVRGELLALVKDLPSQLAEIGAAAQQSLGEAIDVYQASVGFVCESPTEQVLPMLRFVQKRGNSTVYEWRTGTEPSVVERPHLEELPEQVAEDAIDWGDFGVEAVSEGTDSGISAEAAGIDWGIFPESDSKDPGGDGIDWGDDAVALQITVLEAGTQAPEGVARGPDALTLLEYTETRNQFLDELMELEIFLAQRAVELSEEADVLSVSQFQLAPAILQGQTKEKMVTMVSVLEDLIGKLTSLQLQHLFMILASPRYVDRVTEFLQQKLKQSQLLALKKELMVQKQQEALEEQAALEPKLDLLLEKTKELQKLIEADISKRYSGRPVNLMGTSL
The experiment in a line: pull-down.

The experiment “recombinant UFC1” has as its target B1. The experiment is described as follows: ITC.

B1: the binding result in the experiment with GST-CDK5RAP3 is “binds”.

B2: UFL1^UBS peptide, UFL1(1-21) (peptide)
peptide: MADAWEEIRRLAADFQRAQFA
On to B2, for which, in the experiment with recombinant UFC1, the Kd turned out to be 410 nM.
